In data set [1] the test system is T1, XssQ (Synechocystis sp. PCC 6803), ORF:81bb7109.
T1 sequence: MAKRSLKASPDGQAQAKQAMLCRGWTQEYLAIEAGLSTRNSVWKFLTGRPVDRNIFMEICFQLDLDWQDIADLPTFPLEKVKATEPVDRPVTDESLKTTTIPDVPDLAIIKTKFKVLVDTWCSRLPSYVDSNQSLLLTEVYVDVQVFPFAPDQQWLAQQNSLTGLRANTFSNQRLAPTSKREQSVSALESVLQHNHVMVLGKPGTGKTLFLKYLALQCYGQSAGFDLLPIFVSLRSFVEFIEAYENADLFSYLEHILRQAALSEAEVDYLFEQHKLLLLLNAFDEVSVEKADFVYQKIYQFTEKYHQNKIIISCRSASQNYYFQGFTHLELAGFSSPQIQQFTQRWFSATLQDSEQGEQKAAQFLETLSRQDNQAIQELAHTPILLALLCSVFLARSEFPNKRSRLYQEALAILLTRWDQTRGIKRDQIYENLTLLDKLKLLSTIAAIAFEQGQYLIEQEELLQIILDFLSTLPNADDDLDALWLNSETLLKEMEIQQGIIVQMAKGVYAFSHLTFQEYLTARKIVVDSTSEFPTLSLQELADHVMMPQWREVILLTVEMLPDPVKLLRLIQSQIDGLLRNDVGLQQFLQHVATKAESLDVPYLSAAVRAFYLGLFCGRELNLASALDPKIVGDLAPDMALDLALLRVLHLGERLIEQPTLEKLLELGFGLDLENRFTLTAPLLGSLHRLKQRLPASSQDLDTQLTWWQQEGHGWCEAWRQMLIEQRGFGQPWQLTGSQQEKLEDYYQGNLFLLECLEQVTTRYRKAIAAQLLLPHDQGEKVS
Description: EMSA. Particulars: 30 min at room temperature, buffer, salt and pH not given (refers to Hirose 2010, Maeda 2014, Midorikawa 2009). (In general: Mobility shift assays separate free from complexed probe on a gel.)

Data set [2] has the same test system. Description: competition. Particulars: EMSA, 30 min at room temperature; buffer, salt and pH not given (refers to Hirose 2010, Maeda 2014, Midorikawa 2009).

Consider one sequence from paper PMC8205485.

For the sequence “ATCTTTAAAGCCCCAGTCCCGATCGCCAGCGGTTAAACAGGTAAAAAAACAGAAGCAGAAATCTAGTGAGCAGGGGAAACTCAAAACCAAGCCGGGGCGCTCAAAGTCAGGGTCAGGCAAAAGGTCTAAAGTTAGACGCAAAGTTGTACATAGGGCAGGCACGAAATCAGACAGCGATCCATCAAGCTAAGAACAGGTTGCAATTGCCCATCTCACGATCGCCGTCACGCCCCCATGAACACTTCTTTCCT (double strand) [xssE upstream probe / native competitor]”, the binding result in data set [1] and in data set [2] was “binds” each time.
